# Results taken from patent US20200323888A1, “INHIBITORS” (VESTLANDETS INNOVASJONSSELSKAP AS, priority 2017, published 2020).
# Target: T1, Naa80 (Homo sapiens, UniProt Q93015)
# T1 construct: The PCR product containing the CDS was inserted into the TOPO TA vector; made in house; host or cells: E. coli BL21 Star (DE3)
# T1 sequence (Q93015 1-308 isoform Q93015-2): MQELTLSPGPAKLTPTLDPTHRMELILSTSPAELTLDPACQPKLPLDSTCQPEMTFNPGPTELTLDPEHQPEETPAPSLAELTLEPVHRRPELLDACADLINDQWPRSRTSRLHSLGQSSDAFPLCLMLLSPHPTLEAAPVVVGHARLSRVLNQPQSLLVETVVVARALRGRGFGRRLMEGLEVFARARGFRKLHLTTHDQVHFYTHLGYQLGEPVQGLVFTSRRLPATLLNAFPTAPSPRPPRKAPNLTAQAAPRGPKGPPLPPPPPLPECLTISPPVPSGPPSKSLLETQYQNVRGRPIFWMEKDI
# Assay: Naa80 substrate screening assay (peptide acetylation by purified Naa80)
# Format: biochemical
# Settings: Naa80 mediated acetylation of 24-mer peptide substrates
# Description: In order to investigate the in vitro activity of Naa80 further, an enzyme activity screening assay on purified Naa80 was undertaken using a broad substrate library (including amino acids, nucleosides, coenzymes, amines, saccharides, vitamins, antioxidants and peptides) modified from Kuhn et al. (Kuhn et al. (2013) “Broad-substrate screen as a tool to identify substrates for bacterial Gcn5-related N-acetyltransferases with unknown substrate specificity”. Protein Science 22(2):222-230). Among all of the potential substrates tested, only the peptides with N-terminal sequence of MDEL24 (SEQ ID NO: 45), DDDI24 (SEQ ID NO: 41) and EEEI24 (SEQ ID NO: 40) were acetylated, as shown in the following table:
# The 24-mer substrate peptides differed in their 7 N-terminal amino acids while the 17 C-terminal residues (RWGRPVGRRRRPVRVYP, SEQ ID NO: 39) were kept constant: EEEI24 (EEEIAAL, SEQ ID NO: 40), DDDI24 (DDDIAAL, SEQ ID NO: 41), MDDD24 (MDDDIAA, SEQ ID NO: 42), SESS24 (SESSSKS, SEQ ID NO: 43), AVFA24 (AVFADLD, SEQ ID NO: 44), MDEL24 (MDELFPL, SEQ ID NO: 45), MELL24 (MELLSPP, SEQ ID NO: 46), MLGT24 (MLGTGPA, SEQ ID NO: 47), MTNK24 (MTNKSSL, SEQ ID NO: 48), MLGP24 (MLGPEGG, SEQ ID NO: 49), MAPL24 (MAPLDLD, SEQ ID NO: 50), MKKS24 (MKKSYSG, SEQ ID NO: 51).
# Both MDEL (p65, SEQ ID NO: 8) and MDDD24 (unprocessed β-actin, SEQ ID NO: 42) represent cellular NatB substrates.
row,Product formation,Substance
1,−0.96 (±0.84) μM,AVFA24: 24-mer substrate peptide: N-terminal AVFADLD (SEQ ID NO: 44) plus constant RWGRPVGRRRRPVRVYP (AVFADLDRWGRPVGRRRRPVRVYP)
2,1.14 (±3.35) μM,SESS24: 24-mer substrate peptide: N-terminal SESSSKS (SEQ ID NO: 43) plus constant RWGRPVGRRRRPVRVYP (SESSSKSRWGRPVGRRRRPVRVYP)
3,42.4 (±0.95) μM,EEEI24: 24-mer substrate peptide: N-terminal EEEIAAL (SEQ ID NO: 40) plus constant RWGRPVGRRRRPVRVYP (EEEIAALRWGRPVGRRRRPVRVYP)
4,2.15 (±0.40) μM,MELL24: 24-mer substrate peptide: N-terminal MELLSPP (SEQ ID NO: 46) plus constant RWGRPVGRRRRPVRVYP (MELLSPPRWGRPVGRRRRPVRVYP)
5,50.5 (±1.0) μM,DDDI24: 24-mer substrate peptide: N-terminal DDDIAAL (SEQ ID NO: 41) plus constant RWGRPVGRRRRPVRVYP (DDDIAALRWGRPVGRRRRPVRVYP)
6,3.37 (±1.71) μM,MKKS24: 24-mer substrate peptide: N-terminal MKKSYSG (SEQ ID NO: 51) plus constant RWGRPVGRRRRPVRVYP (MKKSYSGRWGRPVGRRRRPVRVYP)
7,2.06 (±1.49) μM,MLGP24: 24-mer substrate peptide: N-terminal MLGPEGG (SEQ ID NO: 49) plus constant RWGRPVGRRRRPVRVYP (MLGPEGGRWGRPVGRRRRPVRVYP)
8,2.28 (±0.61) μM,MAPL24: 24-mer substrate peptide: N-terminal MAPLDLD (SEQ ID NO: 50) plus constant RWGRPVGRRRRPVRVYP (MAPLDLDRWGRPVGRRRRPVRVYP)
9,−4.25 (±1.75) μM,MTNK24: 24-mer substrate peptide: N-terminal MTNKSSL (SEQ ID NO: 48) plus constant RWGRPVGRRRRPVRVYP (MTNKSSLRWGRPVGRRRRPVRVYP)
